From PMC7385642
Values joined by “and” are separate entries in the source; they are usually repeats but may differ in a detail not shown here. Equal entries are not always repeated.

What was measured:
[1] = molecular target: YSD1_17, major capsid protein of phage YSD1 (in the virion) (phage YSD1); assay: cryo-EM structure; single-particle icosahedral reconstruction of the head of purified YSD1 virions (assembled in infected bacteria), 3.8 Å
[2] = molecular target: YSD1_22 delta-HP (residues 45-69 removed and replaced with a glycine) with C-terminal hexa-histidine tag (phage YSD1); assay: SEC-MALS; in-line refractive index and multi-angle laser light scattering (DAWN HELEOS-II, Optilab T-rEX), 25 mM Tris pH 8.0, 200 mM NaCl
[3] = molecular target: YSD1_16, auxiliary protein of phage YSD1 (in the virion) (phage YSD1); assay: cryo-EM structure; single-particle icosahedral reconstruction of the head of purified YSD1 virions (assembled in infected bacteria), 3.8 Å
[4] = molecular target: YSD1_22, tail-tube protein of phage YSD1 (in the virion tail) (phage YSD1); assay: cryo-EM structure; helical reconstruction (C6 symmetry) of the tail tube of purified YSD1 virions (assembled in infected bacteria), 3.5 Å

YSD1_17, major capsid protein of phage YSD1 (in the virion) (natural protein)
stoichiometry N [1]: 5 and 6

YSD1_22 delta-HP (residues 45-69 removed and replaced with a glycine) with C-terminal hexa-histidine tag (natural protein)
stoichiometry N [2]: 6

YSD1_16, auxiliary protein of phage YSD1 (in the virion) (natural protein)
stoichiometry N [3]: 3

YSD1_22, tail-tube protein of phage YSD1 (in the virion tail) (natural protein)
stoichiometry N [4]: 6
